Experimental data: patent US20040005647A1 (University of California, published 2004)
Several values for one entry are separate records, joined by “and”; a condition that tells them apart may be missing. Identical values can stand only once.

Columns and labels:
[1] = target: T1, MUC-1 antigen expressed on MCF-7 human breast adenocarcinoma cells (human, UniProt P15941 24-1255); test: immunohistochemistry on a section of the same prostate cancer; biotinylated anti-mouse antibody and colour reagent
T1 construct: whole, on cells; Scatchard analysis and immunocytochemistry used MCF-7 cells; also called MUC-1 mucin; MUC-1 membrane antigen
Text: FIG. 4 illustrates staining of prostate cancer using three of the scFv described herein. The scFv is placed on the tissue on the slide and then washed off followed with a biotinylated anti mouse antibody for reaction with any bound scFv and then with a color reagent.

[2] = target: T1, MUC-1 antigen expressed on MCF-7 human …; test: competitive ELISA regression, second experiment
Protocol: (§1) Competitive ELISA analysis was performed in triplicate at each concentration. Incubations were carried out at 37EC for 1.5 hrs. Following each incubation, the plates were washed with PBS pH 7.4 containing 0.5% Tween 20 followed by PBS washes alone. Pro-Bind™ ELISA assay plates (Becton Dickinson Labware, Franklin Lakes, N.J.) were coated overnight at room temperature with the MCF-7 cell lysate (200 μg/well) in 15 mM sodium bicarbonate buffer pH 9.6. The ELISA plates were rinsed with PBS and blocked with PBS containing 3.0% dried non-fat milk for 1 hr. at room temperature. Ten percent bovine serum albumin (BSA) was used as a negative control. In a separate plate, soluble scFv containing 10% Tween 20 were prepared and stored on ice for 15 minutes. MCF-7 cell Tysate used as the competitor was diluted in 3% non-fat milk to provide the following concentrations 100 nM, 10 nM and 1 nM. The soluble scFv was transferred to the ELISA plate and incubated with the competitor. 100 μl of anti-E-tag diluted 1:250 in 3% non-fat milk solution was added to the wells and the plate incubated. The plate was developed with 2,2′-Amino-bis-3-ethylbenzthiazoline-6-sulfonic acid (ABTS) (Sigma-Aldrich, St. Louis, Mo.) containing 0.3% H₂O₂. The plate was read using a microplate reader at an absorbency of A₄₀₅ nM (Dynex, Chantilly, Va.). Data was generated from three separate trials and analyzed.

[3] = target: T1, MUC-1 antigen expressed on MCF-7 human …; test: competitive ELISA regression, third experiment (not statistically significant)
Protocol: as §1

[4] = target: T1, MUC-1 antigen expressed on MCF-7 human …; test: competitive ELISA: scFv on plated MCF-7 lysate, soluble MCF-7 lysate (MUC-1) as competitor at 1 nM
Protocol: as §1

[5] = target: T1, MUC-1 antigen expressed on MCF-7 human …; test: linear regression of competitive ELISA data
Protocol: as §1

[6] = target: T1, MUC-1 antigen expressed on MCF-7 human …; test: competitive ELISA regression, estimates of single experiments
Protocol: as §1

[7] = target: T1, MUC-1 antigen expressed on MCF-7 human …; test: Scatchard analysis, 125I-12E scFv on MCF-7 cells with unlabeled competitor; 25 kD fraction, monovalent
[8] = target: T1, MUC-1 antigen expressed on MCF-7 human …; test: Scatchard analysis, 125I-12E scFv on MCF-7 cells with unlabeled competitor; 42 kD fraction, diabody (divalent)

T1 sequence (P15941 24-1255): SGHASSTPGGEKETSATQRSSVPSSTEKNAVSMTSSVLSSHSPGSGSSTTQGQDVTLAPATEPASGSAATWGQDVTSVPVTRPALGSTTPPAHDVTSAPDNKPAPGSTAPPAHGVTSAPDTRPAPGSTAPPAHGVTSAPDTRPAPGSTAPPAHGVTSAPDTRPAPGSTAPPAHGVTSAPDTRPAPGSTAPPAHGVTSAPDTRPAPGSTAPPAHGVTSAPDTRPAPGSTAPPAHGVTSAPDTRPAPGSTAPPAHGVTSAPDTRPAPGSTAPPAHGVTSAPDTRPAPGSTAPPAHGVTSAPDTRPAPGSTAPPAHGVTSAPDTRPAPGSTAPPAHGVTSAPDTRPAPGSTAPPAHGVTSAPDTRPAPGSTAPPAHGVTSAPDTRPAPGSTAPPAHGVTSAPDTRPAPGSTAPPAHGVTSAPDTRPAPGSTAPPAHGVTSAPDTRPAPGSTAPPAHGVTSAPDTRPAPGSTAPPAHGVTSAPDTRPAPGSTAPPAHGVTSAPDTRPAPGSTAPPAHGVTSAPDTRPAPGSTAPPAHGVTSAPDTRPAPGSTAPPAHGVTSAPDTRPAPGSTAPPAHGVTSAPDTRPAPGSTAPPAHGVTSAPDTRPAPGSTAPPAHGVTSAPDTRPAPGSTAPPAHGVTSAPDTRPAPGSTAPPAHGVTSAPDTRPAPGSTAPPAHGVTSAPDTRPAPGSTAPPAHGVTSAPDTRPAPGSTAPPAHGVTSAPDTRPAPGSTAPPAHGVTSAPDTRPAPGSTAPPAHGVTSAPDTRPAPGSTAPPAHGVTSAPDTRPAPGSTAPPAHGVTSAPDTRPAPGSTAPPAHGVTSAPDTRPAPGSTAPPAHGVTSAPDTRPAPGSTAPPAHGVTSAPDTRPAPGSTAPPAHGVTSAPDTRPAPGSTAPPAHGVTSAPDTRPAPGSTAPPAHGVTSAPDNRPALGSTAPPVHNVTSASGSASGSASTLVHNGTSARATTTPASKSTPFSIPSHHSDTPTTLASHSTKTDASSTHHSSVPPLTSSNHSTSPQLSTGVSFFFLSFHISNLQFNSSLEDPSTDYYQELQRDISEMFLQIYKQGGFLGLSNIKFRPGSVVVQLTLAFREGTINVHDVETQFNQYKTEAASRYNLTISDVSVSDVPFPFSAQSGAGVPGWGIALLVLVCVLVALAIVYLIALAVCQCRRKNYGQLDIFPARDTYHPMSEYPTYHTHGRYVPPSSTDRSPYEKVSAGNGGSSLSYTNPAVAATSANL

B1: B5 scFv (scFv)
scFv: MAQVKLQESGAELVRPGASVTLSCKASGYTFTDYEMHWVKQTPVHGLEWIGAIDPETGGTAYNQKFKGKATLTADKSSSTAYMELRSLTSEDSAVYYCTRDGYYAWFAYWGQGTTVTVSSGGGGLGGGGSGGGGSDIELTQSPAIMSASPGERVTMTCSASSSIRYIYWYQQKPGSSPRLLIYDTSNVAPGVPFRFSGSGSGTSYSLTINRMEAEDAATYYCQEWSGYPYTFGGGTKLELKRAAAGAPVPYPDPLEPRAA
notes: The sheet prints only the panel letter G
Does B1 bind [1]?
Result: binds

B2: anti-MUC-1 C4 scFv (scFv)
scFv: QVQLQESGPGLVQPSQSLSITCTVSGFSLTAYGVHWIRQSPGKGLEWLGVIWSGGGTDYNPAFISRLNINKDNSKSQVFFKVDSLQLDDRGIYYCVRRNGYFFDSWGQGTTVTVSSSGRFSGGGSGGGGSDIELTQSPASLLCLWGRGPPSHAGPTMVVSTSGYNFIYWSQQKPGQSPKLLIYLSSNLESGVPARVSGSGSRTYFTLNIHPVEEEDAATFYCRHTRELPCTFGGRTKLEIKRAAAGAPVPYPDPLEPRAA
Which Ka [2] does the source give for B2 here?
The Ka was 2.3e+08 M⁻¹.

What about the Ka [3] of the same binder?
Its Ka is 1.01e+09 M⁻¹.

What about the “percent inhibition of binding with 1 nM of competitor” value (“percent inhibition of binding” below) [4] of the same binder?
Its value is 94%.

B3: anti-MUC-1 3D scFv (scFv, V domains shown)
VH: QVKLQESGPEVVKPGASVKLSCKASGYIFTSYDIDWVRQTPEQGLEWIGWIFPGEGSTEYNEKFKGRATLSVDKSSSTAYMELTRLTSEDSAVYFCARGDYYRRYFDLWGQGTTVTVSS
notes: After the linker stands a short composite of N- and C-terminal pieces of a VL, with no light-chain loops; also called clone 3D
B3 was tested. Which Ka [5] did it give?
The Ka was 2.2e+08 M⁻¹ and > 1e+08 M⁻¹.

And the Ka [6]?
Its Ka is 1.2e+08 to 1.5e+08 M⁻¹.

And the “percent inhibition of binding” value [4]?
The value was 50%.

B4: anti-MUC-1 12E scFv (scFv)
scFv: QVKLQQSGTEVVKPGASVKLSCKASGYIFTSYDIDWVRQTPEQGLEWIGWIFPGEGSTEYNEKFKGRATLSVDKSSSTAYMELTRLTSEDSAVYFCARGDYYRRYFDLWGQGTTVTVSSRGGGSGGGGSGGGGSDIELTQSPAIMSASPGERVTMTCSASSSIRYIYWYQQKPGSSPRLLIYDTSNVAPGVPFRFSGSGSGTSYSLTINRMEAEDAATYYCQEWSGYPYTFGGGTKLELKRAAAGAPVPYPDPLEPRAA
notes: As printed it begins with a vector leader and ends with the E-tag; Mouse scFv from pCANTAB 5E, expressed in E. coli; also called clone 12E
B4 was tested. Which Ka [5] did it give?
Its Ka is 1.7e+08 M⁻¹ and > 1e+08 M⁻¹.

And the “percent inhibition of binding” value [4]?
Its value is 50%.

B5: 125I-anti-MUC-1 12E scFv, 25 kD fraction (monovalent) (scFv)
scFv: QVKLQQSGTEVVKPGASVKLSCKASGYIFTSYDIDWVRQTPEQGLEWIGWIFPGEGSTEYNEKFKGRATLSVDKSSSTAYMELTRLTSEDSAVYFCARGDYYRRYFDLWGQGTTVTVSSRGGGSGGGGSGGGGSDIELTQSPAIMSASPGERVTMTCSASSSIRYIYWYQQKPGSSPRLLIYDTSNVAPGVPFRFSGSGSGTSYSLTINRMEAEDAATYYCQEWSGYPYTFGGGTKLELKRAAAGAPVPYPDPLEPRAA
modifications: 125I-labelled (Chloramine T method)
notes: HPLC (SEC-2000) fraction of iodinated 12E scFv, representative of the monovalent scFv; also called monomeric form of the 12E scFv
With B5 as the binder, how does the Ka [7] read?
The Ka was 8.6e+07 M⁻¹.

B6: 125I-anti-MUC-1 12E scFv, 42 kD fraction (divalent, considered a diabody) (scFv)
scFv: QVKLQQSGTEVVKPGASVKLSCKASGYIFTSYDIDWVRQTPEQGLEWIGWIFPGEGSTEYNEKFKGRATLSVDKSSSTAYMELTRLTSEDSAVYFCARGDYYRRYFDLWGQGTTVTVSSRGGGSGGGGSGGGGSDIELTQSPAIMSASPGERVTMTCSASSSIRYIYWYQQKPGSSPRLLIYDTSNVAPGVPFRFSGSGSGTSYSLTINRMEAEDAATYYCQEWSGYPYTFGGGTKLELKRAAAGAPVPYPDPLEPRAA
modifications: 125I-labelled (Chloramine T method)
notes: HPLC (SEC-2000) fraction of iodinated 12E scFv, considered to be a diabody (divalent); also called bivalent form of the 12E scFv
B6 was tested. Which Ka [8] did it give?
Its Ka is about 1.7e+08 M⁻¹.
